# Numbered stars: 1 amine (or outer) side, 2 acyl side, 3 side chain; on linkers, the order of the positions; unused ones are H or OH. Bridge positions count the residues as written; N and C are the ends. Square brackets hold non-standard residues; d marks the D form. Primed or numbered codes have the meaning given here. Ends that are not written are not given here. * marks the point of attachment. X13 = (2S)‑2‑amino‑3‑(1-methylcyclopropyl)propanoic acid, CC1(C[C@H](N[*:1])C(=O)[*:2])CC1; Tranexamic″ = tranexamic acid, NC[C@H]1CC[C@@H](C(=O)*)CC1; X5 = Tetrahydropyranyl‑4‑acetic acid, O=C(CC1CCOCC1)*; Phe(2,5-diF) = O=C([C@H](Cc1cc(F)ccc1F)N[*:1])[*:2]; Oic = O=C(O)[C@@H]1C[C@@H]2CCCC[C@@H]2N1; Cyclobutylacetic = O=C(CC1CCC1)*; tBuAla = CC(C)(C)C[C@H](N)C(=O)O; Pen = CC(C)(S)[C@H](N)C(=O)O; ΔPro = O=C(O)[C@@H]1C=CCN1; NMeC = CN[C@@H](CS)C(=O)O; Sar = CNCC(=O)O
# T1: recombinant rat MASP1 active protease (amino acids 302-704, C-terminal His Tag) (rat, UniProt Q8CHN8 302-704)
# T1 sequence: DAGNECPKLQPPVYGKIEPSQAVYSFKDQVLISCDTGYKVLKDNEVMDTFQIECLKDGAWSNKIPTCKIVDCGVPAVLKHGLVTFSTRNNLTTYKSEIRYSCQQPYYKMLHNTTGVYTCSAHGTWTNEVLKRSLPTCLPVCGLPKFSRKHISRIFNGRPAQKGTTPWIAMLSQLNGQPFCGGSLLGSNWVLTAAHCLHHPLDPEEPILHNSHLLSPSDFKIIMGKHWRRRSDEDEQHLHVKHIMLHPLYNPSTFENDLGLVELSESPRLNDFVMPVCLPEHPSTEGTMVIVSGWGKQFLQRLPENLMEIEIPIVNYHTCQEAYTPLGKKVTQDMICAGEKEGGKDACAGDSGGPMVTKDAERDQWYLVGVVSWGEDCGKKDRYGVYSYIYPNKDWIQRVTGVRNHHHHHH
# B1: Example 226: (2-(3-Pyridyl)acetic acid)-IC+SRS-((tBu)A)-PPI-(Pen)+IP-NH2 (peptide)
# peptide: {2‑(3-Pyridyl)acetic acid}-ICSRS[tBuAla]PPI[Pen]IP-NH2
# modifications: disulfide 2-10
# B2: Example 235: AIC+SRS-((2,5-Difluoro)F)-PPI-((N-Me)C)+IPD-NH2 (peptide)
# peptide: AICSRS[Phe(2,5-diF)]PPI[NMeC]IPD-NH2
# modifications: disulfide 3-11; N-terminus assumed
# SMILES: CC[C@H](C)[C@H](NC(=O)[C@H](C)N)C(=O)N[C@H]1CSSC[C@@H](C(=O)N[C@H](C(=O)N2CCC[C@H]2C(=O)N[C@@H](CC(=O)O)C(N)=O)[C@@H](C)CC)N(C)C(=O)[C@H]([C@@H](C)CC)NC(=O)[C@@H]2CCCN2C(=O)[C@@H]2CCCN2C(=O)[C@H](Cc2cc(F)ccc2F)NC(=O)[C@H](CO)NC(=O)[C@H](CCCNC(=N)N)NC(=O)[C@H](CO)NC1=O
# B3: Example 271: ((N-Me)G)-IC+SRSLPPIC+IPD-NH2 (peptide)
# peptide: [Sar]ICSRSLPPICIPD-NH2
# modifications: disulfide 3-11; N-terminus assumed
# SMILES: CC[C@H](C)[C@H](NC(=O)CNC)C(=O)N[C@H]1CSSC[C@@H](C(=O)N[C@H](C(=O)N2CCC[C@H]2C(=O)N[C@@H](CC(=O)O)C(N)=O)[C@@H](C)CC)NC(=O)[C@H]([C@@H](C)CC)NC(=O)[C@@H]2CCCN2C(=O)[C@@H]2CCCN2C(=O)[C@H](CC(C)C)NC(=O)[C@H](CO)NC(=O)[C@H](CCCNC(=N)N)NC(=O)[C@H](CO)NC1=O
# B4: Example 269: (Tranexamic)-IC+SRS-((tBu)A)-PPI-(Pen)+IP-NH2 (peptide)
# peptide: {Tranexamic″}-ICSRS[tBuAla]PPI[Pen]IP-NH2
# modifications: disulfide 2-10
# SMILES: CC[C@H](C)[C@@H]1NC(=O)[C@@H]2CCCN2C(=O)[C@@H]2CCCN2C(=O)[C@H](CC(C)(C)C)NC(=O)[C@H](CO)NC(=O)[C@H](CCCNC(=N)N)NC(=O)[C@H](CO)NC(=O)[C@@H](NC(=O)[C@@H](NC(=O)[C@H]2CC[C@@H](CN)CC2)[C@@H](C)CC)CSSC(C)(C)[C@@H](C(=O)N[C@H](C(=O)N2CCC[C@H]2C(N)=O)[C@@H](C)CC)NC1=O
# B5: Example 232: ((N-Me)G)-IC+SRSLPPI-((N-Me)C)+IPD-OH (peptide)
# peptide: [Sar]ICSRSLPPI[NMeC]IPD-OH
# modifications: disulfide 3-11; N-terminus assumed
# SMILES: CC[C@H](C)[C@H](NC(=O)CNC)C(=O)N[C@H]1CSSC[C@@H](C(=O)N[C@H](C(=O)N2CCC[C@H]2C(=O)N[C@@H](CC(=O)O)C(=O)O)[C@@H](C)CC)N(C)C(=O)[C@H]([C@@H](C)CC)NC(=O)[C@@H]2CCCN2C(=O)[C@@H]2CCCN2C(=O)[C@H](CC(C)C)NC(=O)[C@H](CO)NC(=O)[C@H](CCCNC(=N)N)NC(=O)[C@H](CO)NC1=O
# B6: Example 347: IC+SRSLP-(Oic)-I-(Pen)+IPD-OH (peptide)
# peptide: ICSRSLP[Oic]I[Pen]IPD-OH
# modifications: disulfide 2-10; N-terminus assumed
# SMILES: CC[C@H](C)[C@H](N)C(=O)N[C@H]1CSSC(C)(C)[C@@H](C(=O)N[C@H](C(=O)N2CCC[C@H]2C(=O)N[C@@H](CC(=O)O)C(=O)O)[C@@H](C)CC)NC(=O)[C@H]([C@@H](C)CC)NC(=O)[C@@H]2C[C@@H]3CCCC[C@@H]3N2C(=O)[C@@H]2CCCN2C(=O)[C@H](CC(C)C)NC(=O)[C@H](CO)NC(=O)[C@H](CCCNC(=N)N)NC(=O)[C@H](CO)NC1=O
# B7: Example 284: (Cyclobutylacetic)-IC+SRS-((tBu)A)-PPI-(Pen)+IP-NH2 (peptide)
# peptide: Cyclobutylacetic-ICSRS[tBuAla]PPI[Pen]IP-NH2
# modifications: disulfide 2-10
# SMILES: CC[C@H](C)[C@H](NC(=O)CC1CCC1)C(=O)N[C@H]1CSSC(C)(C)[C@@H](C(=O)N[C@H](C(=O)N2CCC[C@H]2C(N)=O)[C@@H](C)CC)NC(=O)[C@H]([C@@H](C)CC)NC(=O)[C@@H]2CCCN2C(=O)[C@@H]2CCCN2C(=O)[C@H](CC(C)(C)C)NC(=O)[C@H](CO)NC(=O)[C@H](CCCNC(=N)N)NC(=O)[C@H](CO)NC1=O
# B8: Example 267: ((N-Me)G)-IC+SRS-((2S)-2-amino-3-(1-methylcyclopropyl)propanoic acid)-P-(Oic)-I-(Pen)+IP-NH2 (peptide)
# peptide: [Sar]ICSRS[X13]P[Oic]I[Pen]IP-NH2
# modifications: disulfide 3-11; N-terminus assumed
# SMILES: CC[C@H](C)[C@H](NC(=O)CNC)C(=O)N[C@H]1CSSC(C)(C)[C@@H](C(=O)N[C@H](C(=O)N2CCC[C@H]2C(N)=O)[C@@H](C)CC)NC(=O)[C@H]([C@@H](C)CC)NC(=O)[C@@H]2C[C@@H]3CCCC[C@@H]3N2C(=O)[C@@H]2CCCN2C(=O)[C@H](CC2(C)CC2)NC(=O)[C@H](CO)NC(=O)[C@H](CCCNC(=N)N)NC(=O)[C@H](CO)NC1=O
# B9: Example 237: AIC+SRSL-(L-dehydroproline)-(Oic)-I-(Pen)+IPD-OH (peptide)
# peptide: AICSRSL[ΔPro][Oic]I[Pen]IPD-OH
# modifications: disulfide 3-11; N-terminus assumed
# SMILES: CC[C@H](C)[C@H](NC(=O)[C@H](C)N)C(=O)N[C@H]1CSSC(C)(C)[C@@H](C(=O)N[C@H](C(=O)N2CCC[C@H]2C(=O)N[C@@H](CC(=O)O)C(=O)O)[C@@H](C)CC)NC(=O)[C@H]([C@@H](C)CC)NC(=O)[C@@H]2C[C@@H]3CCCC[C@@H]3N2C(=O)[C@@H]2C=CCN2C(=O)[C@H](CC(C)C)NC(=O)[C@H](CO)NC(=O)[C@H](CCCNC(=N)N)NC(=O)[C@H](CO)NC1=O
# B10: Example 281: ((N-Me)G)-IC+SRSLPPIC+IPD-OH (peptide)
# peptide: [Sar]ICSRSLPPICIPD-OH
# modifications: disulfide 3-11; N-terminus assumed
# SMILES: CC[C@H](C)[C@H](NC(=O)CNC)C(=O)N[C@H]1CSSC[C@@H](C(=O)N[C@H](C(=O)N2CCC[C@H]2C(=O)N[C@@H](CC(=O)O)C(=O)O)[C@@H](C)CC)NC(=O)[C@H]([C@@H](C)CC)NC(=O)[C@@H]2CCCN2C(=O)[C@@H]2CCCN2C(=O)[C@H](CC(C)C)NC(=O)[C@H](CO)NC(=O)[C@H](CCCNC(=N)N)NC(=O)[C@H](CO)NC1=O
# B11: Example 305: (Tetrahydropyranyl-4-acetic acid)-IC+SRS-((tBu)A)-PPI-((N-Me)C)+I-NH2 (peptide)
# peptide: X5-ICSRS[tBuAla]PPI[NMeC]I-NH2
# modifications: disulfide 2-10
# SMILES: CC[C@H](C)[C@H](NC(=O)[C@@H]1CSSC[C@H](NC(=O)[C@@H](NC(=O)CC2CCOCC2)[C@@H](C)CC)C(=O)N[C@@H](CO)C(=O)N[C@@H](CCCNC(=N)N)C(=O)N[C@@H](CO)C(=O)N[C@@H](CC(C)(C)C)C(=O)N2CCC[C@H]2C(=O)N2CCC[C@H]2C(=O)N[C@@H]([C@@H](C)CC)C(=O)N1C)C(N)=O
# B12: Example 323: GIC+SRSLP-(Oic)-IC+IPD-OH (peptide)
# peptide: GICSRSLP[Oic]ICIPD-OH
# modifications: disulfide 3-11; N-terminus assumed
# SMILES: CC[C@H](C)[C@H](NC(=O)CN)C(=O)N[C@H]1CSSC[C@@H](C(=O)N[C@H](C(=O)N2CCC[C@H]2C(=O)N[C@@H](CC(=O)O)C(=O)O)[C@@H](C)CC)NC(=O)[C@H]([C@@H](C)CC)NC(=O)[C@@H]2C[C@@H]3CCCC[C@@H]3N2C(=O)[C@@H]2CCCN2C(=O)[C@H](CC(C)C)NC(=O)[C@H](CO)NC(=O)[C@H](CCCNC(=N)N)NC(=O)[C@H](CO)NC1=O
# Molecular target: recombinant rat MASP2 active protease (amino acids 296-685, C-terminal His Tag) (rat, UniProt Q9JJS8 296-685)
# Sequence (Q9JJS8 other isoform, or with tags, fused parts or gaps limits assumed): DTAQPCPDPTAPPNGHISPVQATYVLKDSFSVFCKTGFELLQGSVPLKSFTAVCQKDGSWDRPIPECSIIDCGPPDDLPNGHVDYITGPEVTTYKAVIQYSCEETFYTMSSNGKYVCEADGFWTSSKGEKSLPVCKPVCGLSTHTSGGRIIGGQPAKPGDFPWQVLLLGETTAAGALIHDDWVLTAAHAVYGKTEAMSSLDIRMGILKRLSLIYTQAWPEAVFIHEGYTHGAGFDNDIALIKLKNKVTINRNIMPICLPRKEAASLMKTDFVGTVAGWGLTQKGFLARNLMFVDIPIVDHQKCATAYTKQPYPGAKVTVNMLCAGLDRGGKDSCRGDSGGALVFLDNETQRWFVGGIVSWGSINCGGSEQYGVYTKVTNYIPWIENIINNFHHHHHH
# Assay: cell-based or functional assay
row,rat MASP2 IC50 [nM],Binder
1,2.9,B1
2,29,B2
3,55.2,B3
4,9.6,B4
5,125,B5
6,1000,B6
7,9.7,B7
8,42,B8
9,1000,B9
10,308,B10
11,5.3,B11
12,60.1,B12

# Molecular target: T1, recombinant rat MASP1 active protease …
# Assay: cell-based or functional assay
row,rat MASP1 IC50 [nM],Binder
1,29,B1
2,380,B2
3,88.7,B3
4,120,B4
5,67.3,B5
6,1000,B6
7,60,B7
8,130,B8
9,1000,B9
10,270,B10
11,76,B11
12,51.8,B12
